Experiment: soluble on expression in E. coli; label from the status in PepcDB or PDB records

Row | Sequence | soluble on expression in E. coli
1 | LKFPKVAVVGSRACSKQGAKSVEKVIQGLENELVIVSGLAKGIDTAAHMAALQNGGKTIAVIGTGLDVFYPKANKRLQDYIGNDHLVLSEYGPGEQPLKFHFPARNRIIAGLCRGVIVAEAKMRSGSLITCERAMEEGRDVFAIPGSILDGLSDGCHHLIQEGAKLVTSGQDVLAEFEF | not soluble
2 | MAKAFEEQRRSPDLEALPFEDRIGLLVDREAAERDTRRLTTRLKIAALRQTACVEDVDLRTPRGIDRAVFAKLVEGRWIDRHENLLVTGATGLGKSWLACALGHKACRDNRSVLYHRVPRLFEALALARGDGRYARLLKSLGRAQLLILDDWGLSVLTAAERRDLLEILEDRHGRASTIVTSQLPWTPGMEPLGTPRSPTPFSIASSTTPTASSSPEKACENAAPKPSPLTANQNTDSISHRPAAALEHHHHHH | not soluble
3 | KLKIVEVPQEELFRDDDLLKSVYGILVTAHYRNSPDDLMLLGDMAFQKVIVGYSSENPVAVCQVVYEGGLTDKQIWDISNGLKNEGHLIPHRLIKYMRALDFGKLKGWRIMRIAVSPENQGKGIGSRVIEEVIKMAKGVDWIGSSFVADYSVLRFWIKNGFLPVYLSSIKNEE | not soluble
4 | MRLCHSIILFNSLISISICSKADDPALLVASEFKEHFNVEEKQLETVEELLIKMKKLAHSRSFKGREFGHDAVEDSKKEVAISTQQGTINKKVSPFLFEGDIFLSRRQAVDILKALSKDKTKRLRRSFVSDKTATWKTMPIKYRFHESIDFYTISQIIAAIRFWEDSTCITFENVSDSPDGDYIEFFSGQGCYSMIGRNGGRQGISIGESCVKASFFVMGVIEHEIGHALGLWHEQSRPDALGYVTIERDFILPSYISDFLQRDDEIDTLGIPYDLGSVMHYGSTAFSVDQKSKTVVTRDSLYQQTIGQREKLSFYDVATINTAYCKDECKSEKTKCENGGYMRPSKCSECLCPDGLGGEKCEKNEDSKNAECGGIIKLTEEWKEIESPNYPDPGYEADQKCSWLLKAEKGKRVEIEFIEDFSFLCTSTCVDFVELKISDDLRNTGFRFCCYDKPEISFVSQTDTAIIIFRSQLSTDIGFKIQAKSNELIIKTFKNSQKTKMQILFPKLSLKNNSADAEPRTTIAPTIITTTLAPITVDAPNVWADWGEWSMCSRTCGGCGIRSRVRSCRSKKCEGRRQEFGTCNLKACPVDKHCAKLLSNNRLCNGKVCTKNDIAISSCDAPQCCPPFINVDGVCQSDQENQHDELWLSI | not soluble
5 | SNANFNRFTQRAKKAIDLAFESAKSLGHNIVGSEHILLGLLREEEGIAAKVLSKVGFTEAYLEGKIVDMEGKGEEISEDIVLSPRSKQILELSGMFANKLKTNYIGTEHILLAIIQEGEGIANKILNYAGVNDRTLAQLTIDMMG | soluble
6 | MPMNTSKQSNTVKQLITSLDNFEPSRLTIKDFQEGKGVGPKMAFLRYNHPSLGEDTSLMLQTPWITLTSGGIPRYNEQYHKNDKDRAYLRLPLEEGTDFFNKITALDEQFSSDEFKKEKFGKLYKKYSMYPCVKITEQEEGDTRDPLPPSLKLRFSLVWNEEDKDACEINTQVFTSKMEDGKRTRTPVPVSSLKDMESLVRLGAKLRLIVRPVSAWMNPKKEYGIKWKIQKMEVEPSTAGNALMKEFYETDAFIDSDDEEDVELPPSATGKKTSTKTTKEDDEDEDDDDDDDDDDVGEKSEDSDEASDEESDEESDEDSEEDSPDIPVRKSKGKGKSKGLDL | not soluble
7 | MSLSRIRKAPAGILGFPVAPFNTQGTLEEEALFQNIEFLLNEGLEAIFIACGSGEFQSLSQKEYEQMVEVAVSAAGGKVPVYTGVGGNLSTALDWAQLSEKKGADGYLILPPYLVHGEQEGLYQYAKTIIESTDLNAILYQRDNAVLSVEQIKRLTECEQLVGVKDGVGNMDLNINLVYTIGDRLGWLNGMPMAEVTMPAYLPIGFHSYSSAISNYIPHISRMFYDALKNGNDELVKELYRHVILPINDIRKQRKGYAVSLIKAGMEIMGLNVRNTARPPVGPVEKDHYQQLEAILKQPADRFPKKEGHHHHHH | soluble
8 | MQMISRITTGISMQYGLSNGTITFDDLIPELLHFGTITPTQISAITTDKLTEIVDGINGLQRKLDSSSEQLEEQLMMFASVYEKTKGVVPGSIIPKDDVYKTQLDALKIKWSKVDSFAKGIVIFLNEMESMEGVTSDDDANIKLSDMAPHLPKFKDWTLEEYNVYAQNQHLRNIHISYPSLNLVYKAVAEFFPYKNSLDGSLLPQVQENINKLNTLAEKIKPEAPMISQLHELFLSRSLKKSVNFKIISGLLNGISDIQMIFTDLKNEWVNKTVDGQAYNLGKALNQLKTLGNNAQQVDLSIVPVEEKIFKDVSNLYQKVNSLKDLTVIVRPLIGTVTGIEIPQSAIRIPAIDVIGQLIDKMKLLSSKLAALEILVHLSKTLRSAKNTIKLEKMKNITTAAEGKLELFKKSSDFKDIYKLILPAKKAAQKLKEAPTITETVTKIQTSFGNLTTFVDDLKSFLDDIKFLENIKGIDSLKPVIEVIRDYRDPKLFKKVDLSTLIGHLPKLKSTLKVLGDYIKGIKTSKHMETEALSTFTNISVGSQVVGMATRGITNMQMMSSQTVDLKIVKELKAVIDEEMKKHQLNPSDVKNLNSLDGLEDELNRIKTAISDFKKSVKPVKSFKLSNYSGFFQDAKKVPGIKINLPAIIGSVEKLKDRLSTRRRRSASASQLDTLLSLLRSLQIYDSAKFSKAFDDSAKSLQALDTSFTAYSKATSKLQGQKGSQSPRSPGSSPTKELSFLENDGEEFKITHHQVLDWNGLNALEDHRGAGLAAMFLMKYETTAIVHCVDGVSRSAVLAGMIIGFQKIIETRGDMNVADLIDDLRKQRAMAITSGLELAFVDAGIFLLFKRMMNNFEEEYPEDLKQMLKDAVQYYKLIAGYQVQQRDNYFKKLDNMGKKQMNQKKSTEEGVDKSKEQGKDATVMKEKSPLAKVN | not soluble
9 | MSKQQEQDTPSFGEIRQRLQAGEDFDLAHRLQEREYEMYYNHNRNVNGTIVGDRKKTREEQIAEDEHAASLRRLGHAERSMSDEEYARQLQEEMDRLDASIQMDKEAQLREDARMAWLLQQESSATPAPSRHSGDLISFEDQPQQSSNTTTSSSCQSANNS | not soluble
10 | MSLVRTALTIAGSDSGGGAGIEADLKTFTAFGVHGLVAITSVTAQNTQTVTAIHDIPPEVVSEQIRVVAEDIGVDAAKTGMLSNAEIIKAVAKTVKNYDFPLVVDPVMIAKSGAPLLREDAVDALIKYILPLATLVTPNRFEAEKLTGMEIRNVNDAKLAAKKIAEETGAKAVIVKGGHLEGKEAIDVLYHNGAYKLYRAPKVDGCTHGTGCSFSAAITANLAKGLSLEDAVSVAKEFITLGISTGHKIGHGHCPVNQSAWIEIPAEKWRIYEELTRAVREFERINPIKLIPEVGTNFVYALPFPYARTKEDVAGVKGRIVRVGNEVRAVGSVEFGASDHLARAILTFMRFYPKYRSAINVRYSEEIVELAKEQGFTVSFYDRREEPIEVKEKEGATIPWGIEVAVKRINKRPDVIYHLGDIGKEPMILIFGRNPREVLDKLRLLEGHHHHHH | soluble
11 | MGSDKIHHHHHHMIKALYTSITGMNATQNALSVTSNNIANAQTVGYKKQKAMFDDLLYNNSIGAKGDDRYAGTNPKSIGNGVKMSGTVTDYTDGTITLTGGKTQAAMEGNGFFVVGDSKAGNMEFTRKGTFTISSDYYITNTEGQYVFAYPADPSTGNVDLSGIPGPLQVPMGSAIGGIRTSKGVVGGNIPADAKQITQELPVYDNAGNTWTMRVEFKQDGEHNYKYKVYMRNESKKETAFNEVNGAGGEVKFDAVGKPDPVNPEANIPFNGGTVKIDFSKLTNHPTEKTLAVTDVDGRAAATVKDCFIADGGYVMVKYSDGSMKAAGQLAVAMFPNEGGLMKTGNGNYTATNTTGILAMGVSGQNGAGKVRGSAQEGANVDLSVEFVDLMLYQRGFQGNAKVIKISDEVLNEVVNLIR | not soluble
12 | MLDKTRLRIAMQKSGRLSDESQELLSRCGIKINLQQQRLIAFAENMPIDILRVRDDDIPGLVMDGVVDLGIIGENVLEEELLNRRAQGDDPRYFTLRRLDFGGCRLSLAAPLDAEYTGPQCLQDTRIATSYPHILKQYLDKQGVRFKSCLLNGSVEVAPRAGLADAICDLVSTGATLEANGLREVEVIYRSKACLIQRDGEMSVDKQQLIDRLMTRIQGVIQARESKYIMMHAPSERLDEIITLLPGAERPTILPLAGDKSRVAMHMVSSETLFWETMEKLKALGASSILVLPIEKMME | not soluble
13 | MSLKAAQYAGNKSFNVVDGAKVPPAEGEVCLQVGYTGICGTDMHIYHGVMDQRVSIPQIIGHEMSGTVVEVGAGVTDYTVGDRVVVRPLDYCGDCPACNAGHSHVCHNLKFMGIDSPGAFQSYWTVKARTLHALPDNVSLKQGALIEPLSVACHDVARTRLQAGEKALVIGGGPIGQLVALVAKSVGAEVMISEVSEARLKFAAERGIKTVNPVTDDIEAVVKEWTGGKGADAVFEVSGVAAAVETMTKVAAVRGRICMVAIHSQKPQVDLFQFFWKELELLGARVYESADFEHAIELVASGKIDVDSFISSVTSLNDIGTAFASMDNNPAGMKALVECNEGHHHHHH | soluble
14 | MMSTLALVSLAIFGIAVVCAAPKPATVPVANEEDYLAALYGFEAPGSQFKGAPLQSKRHISPSYDVEIDAGNMRNLLDIGKRSAPMASDYGNQFQMYNRLIDAGKKKRSPAISPAYQFENAFGLSEALERAGRR | not soluble
15 | GPGYNEPMAASDEVNLIESRTVVPLNTWVLISNFKVAYNILRRPDGTFNRHLAEYLDRKVTANANPVDGVFSFDVLIDRRINLLSRVYRPAYADQEQPPSILDLEKPVDGDIVPVILFFHGGSFAHSSANSAIYDTLCRRLVGLCKCVVVSVNYRRAPENPYPCAYDDGWIALNWVNSRSWLKSKKDSKVHIFLAGDSSGGNIAHNVALRAGESGIDVLGNILLNPMFGGNERTESEKSLDGKYFVTVRDRDWYWKAFLPEGEDREHPACNPFSPRGKSLEGVSFPKSLVVVAGLDLIRDWQLAYAEGLKKAGQEVKLMHLEKATVGFYLLPNNNHFHNVMDEISAFVNAE | soluble
16 | MSKNLTITHESTFNGNKVYIDKEGLVVEYLEGIESVLENALEQYARLFIVRVDLNLPTDFRGDDSAVMTRFFRSLKSQVAAYRRRSARLNRKPYRETTIRYVWAKECDTSTSSHYHVALIFDRNIFRSLGDFGEYQQSLANRIRNAWKRSVEAMYSGKEKPAIHFSKQGQYHLLRNSEEFGEVFQSVFYRLSYLAKRRTKHFGKRMNNFGHSHK | not soluble
17 | MEDGDSAEAFRAFAAGVALQREDPSPLWVQLKNRIEHAILDGTLPENARLPSEQAMCSMFDLSRPVIRNALQALAGEGRVIKQPRKGMFVAPRAPELAFMTSALGVFDDLSAKGYKVTVKTYEFGLHPANEDERRVFKLPEGFQVIRALRVYHANETPLTHTLISLPAHRLPGFEKLDMEGRSIFGTIRELYGLTVARADRWLKGAIVPPEVAARMGVPPGGAMIAIESVAYDHDGNALEYYRAYYNSEVAPIHVATDAH | not soluble
18 | MSTTDKQVAIVGVGPRGISILERIAAALNTVSRPKQGLTIHLIEDAQMGAGNVWRTDQTRTLCMNTLAGAVTLFTEPGSTVSAPVVEGPLQFDWIRLLRGDEDLSGIPTKAIELFRTYPPAASVAEDFKEELAATVIQSNPSRALYGAYLRWAFDVALQLLPQWVKVEQHHARAIGIREDGDRDVITLDNSEMISADSTVLAVGWQTPAPNAEELSIAAALEENPDLVWVKPGNPVEQDASLIPAGEQVLVRGLGMGFFDIMALTTIDRGGIFHEDPSTRSGLRYEASGEEPHFVISSGRGYPYLPKSDYKSLPPGAKLARLKAVIAAINAQNRGVASINYDAEVWPAVARDAYEAYYETLDRVSPESIRTGLDKIVEIIDEVDVDKLPKALAAHTDDVFDLHAWEFPLAGINESVEALTARIADGMARDIRHAVTAWDSPLKSALWSISAARKPSSILGAEGRLTFESRRNRFAAVMAIGQMVGSGPPLFRTRELLALVDAGLAHFAGARPRLSVSDGQWQISSPTTGDTPLRSKVLVDAWMHNP | not soluble

— the DeepSol protein solubility set
